Results taken from paper PMC3159454.

Molecular target: Elk-1 ETS domain (Elk-ets), recombinant
Assay: SEC

With “Elk-1 ETS domain (Elk-ets), recombinant (domain or fragment)” the stoichiometry N was 2.
